Experiments:
[1] = target: rat follicle-stimulating hormone receptor (rFSHR) (rat) (UniProt P20395)
[2] = target: rat lutropin/chorionic gonadotropin receptor (rLH/CGR) (rat) (UniProt P16235)
UniProt P16235, sequence (P16235 27-700): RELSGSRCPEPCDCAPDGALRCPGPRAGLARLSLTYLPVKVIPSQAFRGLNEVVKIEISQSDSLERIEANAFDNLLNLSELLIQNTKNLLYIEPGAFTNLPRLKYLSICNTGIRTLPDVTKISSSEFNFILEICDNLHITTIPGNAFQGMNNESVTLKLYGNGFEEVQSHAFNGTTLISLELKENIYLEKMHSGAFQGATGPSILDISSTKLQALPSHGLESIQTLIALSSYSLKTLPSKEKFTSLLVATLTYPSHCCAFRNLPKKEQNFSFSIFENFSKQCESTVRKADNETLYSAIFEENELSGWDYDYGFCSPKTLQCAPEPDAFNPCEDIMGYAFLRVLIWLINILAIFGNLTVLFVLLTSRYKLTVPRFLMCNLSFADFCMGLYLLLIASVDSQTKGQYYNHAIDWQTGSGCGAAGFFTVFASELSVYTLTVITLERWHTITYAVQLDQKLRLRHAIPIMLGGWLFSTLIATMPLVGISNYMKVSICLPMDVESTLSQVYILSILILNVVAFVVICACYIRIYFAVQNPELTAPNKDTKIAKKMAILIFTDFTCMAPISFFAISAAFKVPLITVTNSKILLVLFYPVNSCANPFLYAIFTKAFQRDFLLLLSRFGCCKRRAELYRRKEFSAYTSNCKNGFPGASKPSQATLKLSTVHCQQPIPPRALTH

UniProt P20395, sequence (P20395 18-692): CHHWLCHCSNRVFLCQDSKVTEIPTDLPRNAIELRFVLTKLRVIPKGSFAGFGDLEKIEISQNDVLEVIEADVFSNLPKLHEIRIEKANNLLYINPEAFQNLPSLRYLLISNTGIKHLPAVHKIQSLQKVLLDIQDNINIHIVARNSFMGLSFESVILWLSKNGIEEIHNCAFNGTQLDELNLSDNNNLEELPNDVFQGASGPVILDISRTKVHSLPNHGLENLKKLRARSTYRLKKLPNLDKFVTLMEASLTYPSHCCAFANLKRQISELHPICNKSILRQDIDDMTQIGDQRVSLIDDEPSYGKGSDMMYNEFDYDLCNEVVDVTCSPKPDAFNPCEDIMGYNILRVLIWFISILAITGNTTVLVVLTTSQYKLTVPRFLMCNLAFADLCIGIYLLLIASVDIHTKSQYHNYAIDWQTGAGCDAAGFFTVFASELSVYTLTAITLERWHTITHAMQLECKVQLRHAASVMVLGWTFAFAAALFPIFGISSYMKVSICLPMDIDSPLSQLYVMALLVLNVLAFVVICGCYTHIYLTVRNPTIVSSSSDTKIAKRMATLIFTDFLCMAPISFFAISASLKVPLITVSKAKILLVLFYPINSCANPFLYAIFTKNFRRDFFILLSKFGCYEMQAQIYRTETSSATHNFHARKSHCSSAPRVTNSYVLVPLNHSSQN

| Substance | EC50 of cAMP production (HTRF cAMP immunoassay) in CHO-K1 cells transiently expressing rFSHR, 30 min at room temperature, mock-transfected cells subtracted [1] | EC50 of cAMP production (HTRF cAMP immunoassay) in CHO-K1 cells transiently expressing rLH/CGR, 30 min at room temperature, mock-transfected cells subtracted [2] |
| --- | --- | --- |
| rec-eCGβ-D/α (single-chain eCG, CTP region of the β-subunit deleted) (ligand) | 0.0631 µg/mL | 0.0245 µg/mL |
| rec-eCGβ-D/αΔ56 (single-chain eCG double mutant: CTP of the β-subunit deleted and Asn56 of the α-subunit replaced with Gln) (ligand) | 0.0949 µg/mL | 0.334 µg/mL |
| recombinant single-chain equine chorionic gonadotropin, rec-eCGβ/α-wt (from UniProt P08751 21-169) (ligand) | 0.0271 µg/mL | 0.0046 µg/mL |
| rec-eCGβ/αΔ56 (single-chain eCG, Asn56 of the α-subunit replaced with Gln) (from UniProt P08751 21-169) (ligand) | 0.112 µg/mL | 0.0176 µg/mL |

— PMC8419929
